{
  "source": "paper PMC7317968",
  "about": "“A GM1b/asialo‐GM1 oligosaccharide‐binding R‐type lectin from purplish bifurcate mussels Mytilisepta virgata and its effect on MAP kinases” (The Febs Journal, 2019)",
  "molecular_target": "the molecule itself",
  "assay": "AUC; sedimentation velocity, sample about 1.0 mg/mL, 50 mM potassium phosphate pH 7.4, 0.1 M NaCl, 293 K, c(s) analysis in SEDFIT converted to c(M); native mass 30 kDa",
  "data": [
    {"protein": "Mytilisepta virgata R-type lectin SeviL (natural protein, UniProt A0A646QV53 1-129, looked up, SeviL (variant SeviL-1), R-type (ricin B-type) lectin of Mytilisepta virgata, 129 amino acids, 15 kDa; Native protein isolated from tissue; also called SeviL-1; mytvir1; source: purified from Mytilisepta virgata mantles and gills (lactosyl-agarose column, eluted with 50 mM lactose)) MSSVTIGKCYIQNRENGGRAFYNLGRKDLGIFTGKMYDDQIWSFQKSDTPGYYTIGRESKFLQYNGEQVIMSDIEQDTTLWSLEEVPEDKGFYRLLNKVHKAYLDYNGGDLVANKHQTESEKWILFKAY", "values": [
      {"measurement": "stoichiometry N", "result": 2}
    ]}
  ]
}
